# Results published in PMC2647517 (Biochemistry, 2008).
# Read-outs that look alike come from different tables or passages of the source.
# What was measured:
# SEC [1] = target: the molecule itself; test: SEC
# SEC + cross-linking [2] = target: the molecule itself; test: SEC + cross-linking
# SEC + cross-linking [3] = target: the molecule itself; test: SEC + cross-linking; remark: listed apart in the source
# cross-linking = target: the molecule itself; test: cross-linking
# SEC [4] = target: the molecule itself; test: SEC; remark: listed apart in the source
# [5] = target: the molecule itself
protein,measurement,setting,value
"Escherichia coli manganese superoxide dismutase, wild type (apoprotein) (enzyme, UniProt P00448 1-206, looked up) MSYTLPSLPYAYDALEPHFDKQTMEIHHTKHHQTYVNNANAALESLPEFANLPVEELITKLDQLPADKKTVLRNNAGGHANHSLFWKGLKKGTTLQGDLKAAIERDFGSVDNFKAEFEKAAASRFGSGWAWLVLKGDKLAVVSTANQDSPLMGEAISGASGFPIMGLDVWEHAYYLKFQNRRPDYIKEFWNVVNWDEAAARFAAKK",stoichiometry N,SEC [1],2
"EC MnSOD S126C, disulfide form (enzyme, Escherichia coli, UniProt P00448 1-206, looked up, disulfide between Cys126 of the two subunits) MSYTLPSLPYAYDALEPHFDKQTMEIHHTKHHQTYVNNANAALESLPEFANLPVEELITKLDQLPADKKTVLRNNAGGHANHSLFWKGLKKGTTLQGDLKAAIERDFGSVDNFKAEFEKAAASRFGCGWAWLVLKGDKLAVVSTANQDSPLMGEAISGASGFPIMGLDVWEHAYYLKFQNRRPDYIKEFWNVVNWDEAAARFAAKK",stoichiometry N,SEC + cross-linking [2],2
same,stoichiometry N,SEC + cross-linking [3],2
"EC MnSOD E170C, disulfide form (enzyme, Escherichia coli, UniProt P00448 1-206, looked up, disulfide between Cys170 of the two subunits) MSYTLPSLPYAYDALEPHFDKQTMEIHHTKHHQTYVNNANAALESLPEFANLPVEELITKLDQLPADKKTVLRNNAGGHANHSLFWKGLKKGTTLQGDLKAAIERDFGSVDNFKAEFEKAAASRFGSGWAWLVLKGDKLAVVSTANQDSPLMGEAISGASGFPIMGLDVWCHAYYLKFQNRRPDYIKEFWNVVNWDEAAARFAAKK",stoichiometry N,cross-linking,2
"EC MnSOD (S126C/Y174C), double disulfide form (enzyme, Escherichia coli, UniProt P00448 1-206, looked up, disulfides between Cys126 and Cys126 and between Cys174 and Cys174 of the two subunits) MSYTLPSLPYAYDALEPHFDKQTMEIHHTKHHQTYVNNANAALESLPEFANLPVEELITKLDQLPADKKTVLRNNAGGHANHSLFWKGLKKGTTLQGDLKAAIERDFGSVDNFKAEFEKAAASRFGCGWAWLVLKGDKLAVVSTANQDSPLMGEAISGASGFPIMGLDVWEHAYCLKFQNRRPDYIKEFWNVVNWDEAAARFAAKK",stoichiometry N,cross-linking,2
"EC MnSOD Y174C, disulfide form (enzyme, Escherichia coli, UniProt P00448 1-206, looked up, disulfide between Cys174 of the two subunits) MSYTLPSLPYAYDALEPHFDKQTMEIHHTKHHQTYVNNANAALESLPEFANLPVEELITKLDQLPADKKTVLRNNAGGHANHSLFWKGLKKGTTLQGDLKAAIERDFGSVDNFKAEFEKAAASRFGSGWAWLVLKGDKLAVVSTANQDSPLMGEAISGASGFPIMGLDVWEHAYCLKFQNRRPDYIKEFWNVVNWDEAAARFAAKK",stoichiometry N,cross-linking,2
"EC MnSOD S126C, free thiol form (enzyme, Escherichia coli, UniProt P00448 1-206, looked up, Cys126 as free thiol (0.99 mol SH/mol protein)) MSYTLPSLPYAYDALEPHFDKQTMEIHHTKHHQTYVNNANAALESLPEFANLPVEELITKLDQLPADKKTVLRNNAGGHANHSLFWKGLKKGTTLQGDLKAAIERDFGSVDNFKAEFEKAAASRFGCGWAWLVLKGDKLAVVSTANQDSPLMGEAISGASGFPIMGLDVWEHAYYLKFQNRRPDYIKEFWNVVNWDEAAARFAAKK",stoichiometry N,SEC [4],2
"EC MnSOD H171A (enzyme, Escherichia coli, UniProt P00448 1-206, looked up) MSYTLPSLPYAYDALEPHFDKQTMEIHHTKHHQTYVNNANAALESLPEFANLPVEELITKLDQLPADKKTVLRNNAGGHANHSLFWKGLKKGTTLQGDLKAAIERDFGSVDNFKAEFEKAAASRFGSGWAWLVLKGDKLAVVSTANQDSPLMGEAISGASGFPIMGLDVWEAAYYLKFQNRRPDYIKEFWNVVNWDEAAARFAAKK",stoichiometry N,[5],2
